From patent publication US12098175B2, “Peptide inhibitors targeting the CXCL12/HMGB1 interaction and uses thereof” (INSTITUTE FOR RESEARCH IN BIOMEDICINE, priority 2019, dated 2024)
Read-outs that look alike come from different tables or passages of the source. Where no end group is shown, it is not given here.

Experiments:
[1] = molecular target: T1, HMGB1 (Homo sapiens, UniProt P09429); settings: literature value (Mollica et al. 2007); read-out: Kd reported for glycyrrhizin; cited from earlier work
T1 sequence (P09429 1-215): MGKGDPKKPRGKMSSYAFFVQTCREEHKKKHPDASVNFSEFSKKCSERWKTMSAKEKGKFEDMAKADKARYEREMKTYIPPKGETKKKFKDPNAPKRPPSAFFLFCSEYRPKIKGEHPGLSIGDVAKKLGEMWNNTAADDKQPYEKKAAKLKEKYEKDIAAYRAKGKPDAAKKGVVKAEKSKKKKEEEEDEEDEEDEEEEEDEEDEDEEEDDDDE

[2] = Solubility in PBS; format: physicochemical
[3] = molecular target: T2, CXCL12/HMGB1 heterocomplex (Homo sapiens, UniProt P09429); experiment: In vitro chemotaxis (Boyden chamber): CXCL12/HMGB1-induced migration of 300.19 PreB cells expressing human CXCR4; format: cell-based, murine; settings: peptides at 100 μM; CXCL12 1 nM, HMGB1 300 nM; compared with glycyrrhizin 200 μM; 300.19 PreB cells with human CXCR4
T2 sequence (P09429 1-215): T1 sequence (P09429 1-215)
Method: The 13 identified and synthesized peptides were tested in in vitro chemotaxis, to assess their efficacy as inhibitors of the CXCL12/HMGB1-induced migration, on a murine cell line expressing the human CXCR4.
All peptides, at 100 μM, were incubated with CXCL12 and HMGB1 before assessing chemotaxis, to evaluate their ability to interfere with the heterocomplex formation, and inhibit the synergistic effect of HMGB1.

[4] = molecular target: CXCL12 (Homo sapiens, UniProt P48061); experiment: In vitro chemotaxis: migration induced by CXCL12 alone, 300.19 PreB cells expressing human CXCR4; format: cell-based, murine; settings: peptides at 100 μM; CXCL12 1 nM; 300.19 PreB cells with human CXCR4
Method: Further experiments were performed with CXCL12 alone to identify peptides affecting cell migration induced by CXCL12 alone.
Briefly, chemotaxis was performed using Boyden chambers with 5 μm pore membranes. […] 200 μM glycyrrhizin were used as positive control.

[5] = molecular target: T1, HMGB1; experiment: Binding affinity to HMGB1 by microscale thermophoresis (MST); settings: for Kd (μM), equilibrium dissociation constant: MST, Example 6 (Table 4), highest peptide concentration 500 μM
Method: The protein and the peptide were incubated for 15 minutes at room temperature, to allow binding. MST analysis was performed using premium-coated capillary tubes on a NanoTemper® instrument using the following experimental settings: LED power of 5% (for fluorescence excitation), and laser power 40% (to create temperature gradient). Kd values were calculate from compound concentration-dependent changes in normalized fluorescence (Fnorm). Independent experiments were performed to calculate the Kd value. Data were analyzed by the NanoTemper® analysis software.
MST analysis was performed using premium-coated capillary tubes on a NanoTemper instrument using the following experimental settings: LED power of 5% (for fluorescence excitation), and laser power 40% (to create temperature gradient). Kd values were calculated from compound concentration-dependent changes in normalized fluorescence (Fnorm). Independent experiments were performed to calculate the Kd value. Data were analyzed by the NanoTemper analysis software.

Chain of CXCL12 (P48061 22-93, species assumed): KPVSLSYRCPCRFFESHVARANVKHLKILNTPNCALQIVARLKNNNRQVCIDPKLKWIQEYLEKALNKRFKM

Compound | Inhibition of the enhanced migration induced by the CXCL12/HMGB1 heterocomplex [3] | Effect on cell migration induced by CXCL12 alone [4] | also measured
CC1(C)[C@@H](O[C@H]2O[C@H](C(=O)O)[C@@H](O)[C@H](O)[C@H]2O[C@@H]2O[C@H](C(=O)O)[C@@H](O)[C@H](O)[C@H]2O)CC[C@]2(C)[C@H]3C(=O)C=C4[C@@H]5C[C@@](C)(C(=O)O)CC[C@]5(C)CC[C@@]4(C)[C@]3(C)CC[C@@H]12 [glycyrrhizin] | – | – | Kd [1]: 125 µM
GYHYEAWIH [HBP08-A6] | – | – | Solubility [2]: poorly soluble
YHICWYGDY (HBP12) | inhibit the enhanced migration induced by the CXCL12/HMGB1 heterocomplex more than glycyrrhizin at 200 μM | inhibit the migration induced by the chemokine alone | –
ERWIH [Pentapept-2, ERWIH] | – | – | Kd [5]: 200 ± 80 µM
HWTLANWCR (HBP07) | inhibit the enhanced migration induced by the CXCL12/HMGB1 heterocomplex more than glycyrrhizin at 200 μM | do not affect CXCL12-induced cell migration | –
WISNWILMW (HBP05) | inhibit the enhanced migration induced by the CXCL12/HMGB1 heterocomplex more than glycyrrhizin at 200 μM | inhibit the migration induced by the chemokine alone | –
GYHYE [Pentapept-1] | – | – | Kd (μM), equilibrium dissociation constant [5]: No binding*; Kd (μM), equilibrium dissociation constant ([5]; listed as pentapept-1): no binding was observed
